# Laboratory results published in patent US20140044735A1 (ISNERM INSTITUT NATIONAL DE LA SANTE ET DE LA RECHERCHE …, published 2014).
# Values joined by “and” are separate entries in the source; they are usually repeats but may differ in a detail not shown here. Equal entries are not always repeated.
# T1: CD47 on mouse erythrocytes (wild type and SAD transgenic mice) (mouse, UniProt Q61735 19-303)
# T1 sequence (looked up): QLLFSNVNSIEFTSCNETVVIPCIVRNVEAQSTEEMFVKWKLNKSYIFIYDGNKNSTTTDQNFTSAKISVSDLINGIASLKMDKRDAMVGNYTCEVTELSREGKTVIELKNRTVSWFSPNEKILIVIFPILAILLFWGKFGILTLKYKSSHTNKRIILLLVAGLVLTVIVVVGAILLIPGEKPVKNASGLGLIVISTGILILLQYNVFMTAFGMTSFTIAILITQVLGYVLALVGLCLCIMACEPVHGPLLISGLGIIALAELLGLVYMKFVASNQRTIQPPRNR
# Assays:
# [1] = molecular target: CD47 on mouse erythrocytes (wild type and SAD transgenic mice) (mouse) (UniProt Q61735); assay: cell-based or functional assay
# [2] = molecular target: CD47 on mouse erythrocytes (wild type and SAD transgenic mice) (mouse) (UniProt Q61735); assay: flow cytometry of fresh mouse erythrocytes stained with the FITC-coupled antibody
# [3] = molecular target: T1, CD47 on mouse erythrocytes (wild type …); assay: cell-based or functional assay
molecule,measurement,setting,value
Human recombinant TSP1 (thrombospondin-1) (from UniProt P07996 19-1170) (ligand),echinocytes among SAD mouse erythrocytes under shear,[1],50%
same,proportion of echinocytes among wild type mouse erythrocytes under shear,[1],> 10 fold and 30%
mouse-specific fluoroisothiocyanate (FITC)-coupled anti-CD47 monoclonal antibody (clone mIAP301; BD Biosciences),CD47 expression by FACS (percent),[2],85%
"RFYVVMWK [4N1-1 synthetic peptide (RFYVVMWK), TSP1 carboxyterminal peptide]",MP shedding by SAD mouse erythrocytes,[3],40 fold
same,MP shedding by wild type mouse erythrocytes,[3],16 fold
same,echinocytosis of wild type mouse erythrocytes,[3],2 fold
